One test concerns the target Calmodulin (Homo sapiens, UniProt P0DP23). The experiment in a line: fluorescence anisotropy.
Another test concerns the target T1, S100A1 (Homo sapiens, UniProt P23297).
T1 chain: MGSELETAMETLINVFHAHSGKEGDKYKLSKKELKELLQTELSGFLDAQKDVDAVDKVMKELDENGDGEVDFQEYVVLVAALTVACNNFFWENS
The experiment in a line: fluorescence anisotropy.

Here are results for two molecules from publication PMC7352223 (2020).

No end group written: not given here.

As a reminder, the Kd is the equilibrium constant for the complex coming apart.

B1: TRPM4 (M4nt_WT) (peptide)
chain: FGECYRSSEVRAARLLLRRCPL
modifications: cysteine pairing not given here; also: Ca2+
For B1, the dissociation constant (Kd) was 1300 nM with Calmodulin and 2700 nM with S100A1.

B2: TRPM4 (M4ct_WT) (peptide)
chain: PFIVISHLRLLLRQLCRRPRS
modifications: also: Ca2+
On to B2, for which the Kd with Calmodulin worked out at 2600 nM; in the test with S100A1, 12000 nM.
